Assay results from patent publication US20210355229A1 (JIANGSU HENGRUI MEDICINE, published 2021).
Where a chain is given by its changes, count along the chain named. Where two headings read alike, the source gives them in different places. Each block holds one binder with its values, some of them ahead of it.

Tests used:
[1] = target: T1, human OX40-FC-biotin (human OX40 recombinant protein with Fc tag, Acro Biosystems OX40-H5255, labeled with … (human, UniProt P43489 29-216, labeled with biotin (site not stated))); assay: capture ELISA, biotin-OX40-Fc
T1 construct: range 29-216; Bought (Acro Biosystems OX40-H5255; printed once as OXO-H5255), expressed in HEK293; also called human Bio-OX40-FC; not shown: Fc tag of the bought protein
T1 sequence (looked up): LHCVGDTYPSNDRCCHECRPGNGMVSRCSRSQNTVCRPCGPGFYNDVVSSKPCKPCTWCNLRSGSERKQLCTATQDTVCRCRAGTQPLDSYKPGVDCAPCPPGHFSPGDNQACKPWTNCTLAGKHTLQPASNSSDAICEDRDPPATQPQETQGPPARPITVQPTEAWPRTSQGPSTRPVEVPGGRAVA
Experimental: 20xPBS buffer was diluted to 1 xwith deionized water. […] 100 μL of the diluted primary antibody was added to each well (the antibody to be tested was 5-fold diluted from the concentration of 10000 ng/ml, resulting in seven gradients, namely 10000 ng/ml, 2000 ng/ml, 400 ng/ml, 80 ng/ml, 16 ng/ml, 3.2 ng/ml, and 0.64 ng/ml, blank wells merely contained dilution solution, i.e., 2.5% skimmed milk in PBST), and incubated at 37° C. for 40 minutes. The plate was washed for 4 times with PBST, human OX40-FC-biotin (Acro biosystem, OXO-H5255, labeled biotin) was diluted with 2.5% skimmed milk in PBST, 100 μl was added to each well, incubated at 37° C. for 40 min, and the plate was washed for 4 times with PB ST. 100 μL TMB developing solution was added to each well, incubated for 3-15 minutes in dark at room temperature, 50 μl stop solution (1M sulfuric acid) was added to each well. The parameters were set for the microplate reader, the OD value was read at 450-630nm, and the test data were saved.

[2] = target: T2, human OX40 on Jurkat-NF-Kb luc-hOX40 cells (human, UniProt P43489 29-277); assay: cell-based or functional assay
T2 sequence (looked up): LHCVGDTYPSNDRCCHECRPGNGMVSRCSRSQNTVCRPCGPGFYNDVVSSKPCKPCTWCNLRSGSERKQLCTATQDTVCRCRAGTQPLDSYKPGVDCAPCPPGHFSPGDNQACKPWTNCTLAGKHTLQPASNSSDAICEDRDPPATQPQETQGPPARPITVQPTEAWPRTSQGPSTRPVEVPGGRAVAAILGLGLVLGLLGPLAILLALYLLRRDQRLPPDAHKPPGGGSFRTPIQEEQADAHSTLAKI

[3] = target: T3, human OX40 (antigen of the ELISA of Example 4) (human, UniProt P43489 29-216, limits assumed); assay: ELISA on human OX40 (Example 4, steps as in Example 2), OD450 against log concentration of antibody
T3 construct: either human OX40-His or human OX40-Fc-biotin
T3 sequence (looked up): T1 sequence (looked up)

[4] = target: T3, human OX40 (antigen of the ELISA of …); assay: as above; remark: listed apart in the source

EC50 [1]: 0.59 µg/mL
B1: humanized antibody hu4B5-V1 (antibody, human IgG1, V domains shown)
VH: QVQLQESGPGLVKPSETLSLTCTVSGFSLTSYGLHWIRQPPGKGLEWIGVIWSGGSTDYNAAFISRVTISVDTSKNQFSLKLSSVTAADTAVYYCAREEYDVWGQGTTVTVSS
VL: DIQMTQSPSSLSASVGDRVTITCRASQDISNYLNWYQQKPGKVPKLLIYYTSRLHSGVPSRFSGSGSGTDFTLTISSLQPEDVATYYCQQGNTLPWTFGGGTKVEIK
notes: hu4B5 VH0 + hu4B5 VL0

binding result [1]: binds
B2: humanized antibody 2G3-hu3 (antibody, human IgG1, V domains shown)
VH: QVQLQESGPGLVKPSETLSLTCTVSGYSISRYSVHWVRQPPGKGLEWIGMIWDGGNTDYNSALKSRFTISRDNSKNTLYLQMNSLRAEDTAVYYCARNPLYFSYAMDYWGQGTLVTVSS
VL: B1 VL with V43A, H55Q, F71Y, V83F, G91V, L94F, W96F, G100Q, V104L
notes: hu2G3 VH1 + hu2G3 VL2

EC50 [1]: 0.76 µg/mL
B3: humanized antibody hu4B5-V10 (antibody, human IgG1, V domains shown)
VH: B1 VH with Q5K, I37F, V71K, D72E, T73D, N76S, F78V
VL: B1 VL with F71Y
notes: hu4B5 VH3 + hu4B5 VL1; human IgG1 / human Kappa constant regions

binding result [1]: binds
B4: humanized antibody hu4B5-V22 (antibody, human IgG1, V domains shown)
VH: B1 VH
VL: B1 VL with K42G, V43T, P44V, F71Y, Y87F
notes: hu4B5 VH0 + hu4B5 VL4; human IgG1 / human Kappa constant regions

binding result [1]: binds
B5: humanized antibody hu4B5-V19 (antibody, human IgG1, V domains shown)
VH: B1 VH with V71K, D72E, T73D
VL: B1 VL with K42G, F71Y, P80Q
notes: hu4B5 VH1 + hu4B5 VL3; human IgG1 / human Kappa constant regions

binding result [1]: binds
B6: humanized antibody hu4B5-V18 (antibody, human IgG1, V domains shown)
VH: B1 VH
VL: B1 VL with K42G, F71Y, P80Q
notes: hu4B5 VH0 + hu4B5 VL3; human IgG1 / human Kappa constant regions

binding result [1]: binds
B7: humanized antibody hu4B5-V21 (antibody, human IgG1, V domains shown)
VH: B1 VH with Q5K, I37F, V71K, D72E, T73D, N76S, F78V
VL: B1 VL with K42G, F71Y, P80Q
notes: hu4B5 VH3 + hu4B5 VL3; human IgG1 / human Kappa constant regions

EC50 [1]: 0.536 µg/mL
B8: humanized antibody hu4B5-V14 (antibody, human IgG1, V domains shown)
VH: B1 VH with Q5K, I37F, I48L, V67L, V71K, D72E, T73D, N76S, F78V
VL: B1 VL with K42G, V43T, P44V, F71Y, Y87F
notes: hu4B5 VH4 + hu4B5 VL4; human IgG1 / human Kappa constant regions

binding result [1]: binds
B9: humanized antibody hu4B5-V8 (antibody, human IgG1, V domains shown)
VH: B1 VH with V71K, D72E, T73D
VL: B1 VL with F71Y
notes: hu4B5 VH1 + hu4B5 VL1; human IgG1 / human Kappa constant regions

EC50 [1]: 0.743 µg/mL
B10: humanized antibody 2G3-hu7 (antibody, human IgG1, V domains shown)
VH: QVQLQESGPGLVKPSQTLSLTCTVSGFSLSRYSVHWVRQPPGKGLEWIGMIWDGGNTDYAAPVKGRFTISRDDSKNTLYLQMNSLKTEDTAVYYCARNPLYFSYAMDYWGQGTLVTVSS
VL: B1 VL with V43A, H55Q, F71Y, V83F, G91V, L94F, W96F, G100Q, V104L
notes: hu2G3 VH1.2 + hu2G3 VL2

binding result [1]: binds
B11: humanized antibody hu4B5-V25 (antibody, human IgG1, V domains shown)
VH: B1 VH with Q5K, I37F, V71K, D72E, T73D, N76S, F78V
VL: B1 VL with K42G, V43T, P44V, F71Y, Y87F
notes: hu4B5 VH3 + hu4B5 VL4; human IgG1 / human Kappa constant regions

binding result [1]: binds
B12: humanized antibody hu4B5-V16 (antibody, human IgG1, V domains shown)
VH: B1 VH with V71K, D72E, T73D
VL: B1 VL with K42G, F71Y
notes: hu4B5 VH1 + hu4B5 VL2; human IgG1 / human Kappa constant regions

binding result [1]: binds
B13: humanized antibody hu4B5-V6 (antibody, human IgG1, V domains shown)
VH: B1 VH
VL: B1 VL with F71Y
notes: hu4B5 VH0 + hu4B5 VL1; human IgG1 / human Kappa constant regions

binding result [1]: binds
B14: humanized antibody hu4B5-V15 (antibody, human IgG1, V domains shown)
VH: B1 VH
VL: B1 VL with K42G, F71Y
notes: hu4B5 VH0 + hu4B5 VL2; human IgG1 / human Kappa constant regions

binding result [1]: binds
B15: humanized antibody 2G3-hu5 (antibody, human IgG1, V domains shown)
VH: B2 VH with S61A, S74A
VL: B1 VL with V43A, H55Q, F71Y, V83F, G91V, L94F, W96F, G100Q, V104L
notes: hu2G3 VH1.1 + hu2G3 VL2

binding result [1]: binds
B16: humanized antibody hu4B5-V23 (antibody, human IgG1, V domains shown)
VH: B1 VH with V71K, D72E, T73D
VL: B1 VL with K42G, V43T, P44V, F71Y, Y87F
notes: hu4B5 VH1 + hu4B5 VL4; human IgG1 / human Kappa constant regions

EC50 [1]: 0.886 µg/mL
B17: humanized antibody 2G3-hu1 (antibody, human IgG1, V domains shown)
VH: B2 VH
VL: DIQMTQSPSSLSASVGDRVTITCRASQDISNYLNWYQQKPDQSPKLLIIYTSRLQSGVPSRFSGSGSGTDYTLTISSLQPEDFATYYCQQVNTFPFTFGQGTKLEIK
notes: hu2G3 VH1 + hu2G3 VL1

binding result [1]: binds
B18: humanized antibody hu4B5-V4 (antibody, human IgG1, V domains shown)
VH: B1 VH with Q5K, I37F, V71K, D72E, T73D, N76S, F78V
VL: B1 VL
notes: hu4B5 VH3 + hu4B5 VL0; human IgG1 / human Kappa constant regions

binding result [1]: binds
B19: humanized antibody hu4B5-V2 (antibody, human IgG1, V domains shown)
VH: B1 VH with V71K, D72E, T73D
VL: B1 VL
notes: hu4B5 VH1 + hu4B5 VL0; human IgG1 / human Kappa constant regions

EC50 [1]: 0.82 µg/mL
B20: humanized antibody 2G3-hu6 (antibody, human IgG1, V domains shown)
VH: B10 VH
VL: B17 VL
notes: hu2G3 VH1.2 + hu2G3 VL1

EC50 [1]: 1.6 µg/mL
B21: humanized antibody 2G3-hu2 (antibody, human IgG1, V domains shown)
VH: QVQLQESGPGLVKPSETLSLTCTVSGGSISRYSVHWIRQPPGKGLEWIGMIWDGGNTDYNSALKSRVTISVDTSKNQFSLKLSSVTAADTAVYYCARNPLYFSYAMDYWGQGTLVTVSS
VL: B17 VL
notes: hu2G3 VH2 + hu2G3 VL1

EC50 [1]: 2.27 µg/mL
B22: humanized antibody 2G3-hu4 (antibody, human IgG1, V domains shown)
VH: B21 VH
VL: B17 VL with D41G, Q42K, S43A, I49Y
notes: hu2G3 VH2 + hu2G3 VL2

EC50 (nM), in vitro activation of reporter gene (luciferase, Jurkat-NF-Kb luc-hOX40 cells with Raji cells, anti-CD3 coated) [2]: 0.637 nM
EC50 (read off the curve) [3]: ~10 ng/mL
B23: chimeric antibody Ch2G3 (antibody, V domains shown)
VH: QVQLKESGPGLVASSQSLSITCTVSGFSLSRYSVHWVRQPPGKGLEWLGMIWDGGNTDYNSALKSRLSISKDNSKSQVFLKMNSLQTDDTAMYYCARNPLYFSYAMDYWGQGTSVTVSS
VL: DIQMTQSTSSLSASLGDRVTISCRASQDISNYLNWYQQKPDGTVKLLIIYTSRLQSGVPSRFSGSGSGTDYSLTISNLEQEDIATYFCQQVNTFPFTFGSGTKLEIK

EC50 (read off the curve) [4]: ~40 ng/mL
EC50 [1]: 0.58 µg/mL
B24: murine monoclonal antibody m4B5 (antibody, V domains shown)
VH: QVQLKQSGPGLVQPSQSLSITCTVSGFSLTSYGLHWFRQSPGKGLEWLGVIWSGGSTDYNAAFISRLSISKDDSKSQVFFKMNSLQADDTAIYYCAREEYDVWGTGTTVTVSS
VL: B23 VL with S7T, T8A, I49Y, Q55H, I83V, V91G, F94L, F96W, S100G
notes: Murine hybridoma monoclonal

EC50 (read off the curve) [3]: ~30 ng/mL
EC50 [1]: 0.867 µg/mL
B25: murine monoclonal antibody m2G3 (antibody, V domains shown)
VH: B23 VH
VL: B23 VL
notes: Murine hybridoma monoclonal

EC50 (nM), in vitro activation of reporter gene (luciferase, Jurkat-NF-Kb luc-hOX40 cells with Raji cells, anti-CD3 coated) [2]: 0.559 nM
EC50 (read off the curve) [4]: ~20 ng/mL
EC50 [1]: 0.208 µg/mL
B26: chimeric antibody Ch4B5 (antibody, V domains shown)
VH: B24 VH
VL: B23 VL with S7T, T8A, I49Y, Q55H, I83V, V91G, F94L, F96W, S100G
